The target of data set [1] is T1, PpsR (Rubrivivax gelatinosus) (UniProt I0HUJ5).
T1 sequence: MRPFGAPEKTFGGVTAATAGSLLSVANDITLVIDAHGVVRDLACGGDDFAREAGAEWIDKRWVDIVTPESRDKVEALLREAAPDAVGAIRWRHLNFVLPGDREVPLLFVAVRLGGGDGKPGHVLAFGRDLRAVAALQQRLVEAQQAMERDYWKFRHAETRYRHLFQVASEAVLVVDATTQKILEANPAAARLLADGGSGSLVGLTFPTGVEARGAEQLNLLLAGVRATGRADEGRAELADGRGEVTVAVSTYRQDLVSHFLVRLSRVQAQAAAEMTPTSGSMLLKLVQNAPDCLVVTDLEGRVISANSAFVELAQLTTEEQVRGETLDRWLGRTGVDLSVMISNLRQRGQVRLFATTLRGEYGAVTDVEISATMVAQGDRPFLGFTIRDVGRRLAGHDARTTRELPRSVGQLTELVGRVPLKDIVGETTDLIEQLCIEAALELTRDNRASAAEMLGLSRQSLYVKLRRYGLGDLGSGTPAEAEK
The data set is described as follows: DNase I footprinting. The note with it: EMSA: 5 nM probe, 25 mM Tris-HCl pH 8.0, 100 mM NaCl, 2 mM MgCl2, 6% glycerol, 50 ug/ml heparin, room temperature 30 min (5 mM DTT if reduced); footprint: ….

Data set [2] has as its target Rubrivivax gelatinosus PpsR (Rubrivivax gelatinosus). The data set is described as follows: SEC; Superose 12 in 20 mM Tris-HCl (pH 8.0), 500 mM NaCl, 6% glycerol, 0.5 ml/min; molecular weight estimated from a standard curve (Gel Filtration Standard, BioRad).
For data set [3], the system named is PpsR C436A (Rubrivivax gelatinosus). The data set is described as follows: EMSA. The note with it: EC50, EMSA: 5 nM probe, 25 mM Tris-HCl pH 8.0, 100 mM NaCl, 2 mM MgCl2, 6% glycerol, 50 ug/ml heparin, room temperature 30 min (5 mM DTT if reduced), footprint: ….
Data set [4] relates to PpsR (Rubrivivax gelatinosus). The data set is described as follows: EMSA. As to conditions: EC50, EMSA: 5 nM probe, 25 mM Tris-HCl pH 8.0, 100 mM NaCl, 2 mM MgCl2, 6% glycerol, 50 ug/ml heparin, room temperature 30 min (5 mM DTT if reduced), footprint: ….

On to “ACCAGTTTCCGTGCTCGACCCGCACGTGGGTTGGCTTCTGTAGCCCTCGGATTTCTCCCTACCGACATGTGTAACGCTACGCTGACAGGGTGGGGGCGTCAACATGTCGTGACACCCCCGCAACGCTGAATGTGTCGCGGCTCTGATCTATGACAAATTGCCGGGGTCCGGCGGGCCTCGGGAGCTCT (double strand) [pucB promoter footprint probe]”, for which, in data set [1], the binding entry is listed as “binds”.
For “ATCCTGCTTTCCGGCCGCGCGCGGGGCTGCGGCATCCGACTTCATCAGCATCCGTCGAGCTTGTCCTAAGGCAGGGATTGTGTCAACGACAATTGACGCTCTGTTTTGTCAAGCGCAAGATTCAGCCCCATGGCAAGGCCCGCGTTGTCCGCTGTAGCGGAGTTGCTCAAACCGATCACCTGGTTCCCTCCGAT (double strand) [crtI promoter footprint probe]”, in data set [1], the binding entry is recorded as “binds”.
“Rubrivivax gelatinosus PpsR (natural protein)”: the stoichiometry N in data set [2] is 4.
Consider crtI promoter EMSA probe, for which the K half was found to be 146 nM in data set [3] (oxidized (untreated)); 147 nM in data set [3] (reduced, 5 mM DTT); 80.5 nM in data set [4] (oxidized (untreated)); 86.5 nM in data set [4] (reduced, 5 mM DTT).
Consider pucB promoter EMSA probe, for which the K half in data set [3] (oxidized (untreated)) was 94.1 nM; in data set [3] (reduced, 5 mM DTT), 93.3 nM; in data set [4] (oxidized (untreated)), 49.8 nM; in data set [4] (reduced, 5 mM DTT) it was 63.3 nM.

Source of the values: article PMC4452267.
